Measurements published in the supplement of paper PMC9170038.

Assays:
[1] = test system: MS2 coat protein; test: apparent KD of MS2 coat protein; designed switch direction (-1 OFF switch, 1 ON switch): -1; higher = weaker reporter binding; conditions: Eterna round: R98
Protocol: (§1)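 RNA-MaP: designed FMN/MS2 RNA switches (84 nt design region) are transcribed on-chip within common flanks and titrated with SNAP-549-labelled MS2 coat protein (about 1-3000 nM) in 100 mM Tris pH 7.5, 80 mM KCl, 4 mM MgCl2, without or with 200 uM FMN. Median apparent KD per design; activation ratio = KD,OFF / KD,ON.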

[2] = test system: MS2 coat protein; test: apparent KD of MS2 coat protein; higher = weaker reporter binding; conditions: Eterna round: R101
Protocol: as §1

| Sequence | apparent KD of MS2 coat protein ([1]; input ligand: FMN 200 uM) [nM] | apparent KD of MS2 coat protein ([1]; input ligand: none) [nM] | apparent KD of MS2 coat protein ([2]; input ligand: FMN 200 uM) [nM] | apparent KD of MS2 coat protein ([2]; input ligand: none) [nM] |
| --- | --- | --- | --- | --- |
| GCACUGGAUGUAGGAUAUCAGGACGAUAAGUCCUGAGAAGGACAUGAGGAUCACCCAUGUGAUAAUACCAGUGCAAAUAAUAUA [Denovo Exng1 26] | 119 | 19.5 | – | – |
| UUGGACGUCGUAGGAUAUGUAGGAUAUUCCUACAUGAGGAUCACCCAUGUUUACAUGGAAGAAGGACAGAAGGACGAUGUCCAU (puzzle (switch architecture): Same State NG 2) | – | – | 5.73 | 572 |
| UGCUAACUGUAGAAGGGUGACAUGAGGAUCACCCAUGUGCACGCGCGAUUUACGGCGCGCGUGCCACAGGAUAUACAGUUUAGU [Atquar] (puzzle (switch architecture): Inverted Same State NG 2) | – | – | 34.3 | 32.7 |
| AGGUAUACUUAGAAGGCGUGGACGAAACGUCCACGAGGAUAUGAGGAUCACCCAUAUCAGGUCAGCCUGCAAAGCAGGCUGACC [#SharedSequence - IExNG1: 8-2] (puzzle (switch architecture): Inverted Exclusion NG 1) | – | – | 43.9 | 12.2 |
| GGAGAUACAUGAGGAUCACCCAUGUAGGAUAUAUAGUAUAUAUAUAUCGAAAGAUAUAUAUAUAUAUAGAAGGGCGUGCACACC [#LOL-16] (puzzle (switch architecture): Small Loop Exclusion NG 3) | – | – | 6.74 | 8.34 |
| CAACUGGCACAGAAGGGUGACAUGAGGAUCACCCAUGUAGCGUGGCACUCAGGAGGAGCCACGCCACAGGAUAUGUGCCGACAC [Beisreriar] (puzzle (switch architecture): Inverted Same State NG 2) | – | – | 45.7 | 29.9 |
| UAUAUAAUUAAGAGCUGGAAAAUCACAUGAGGAUCACCCAUGUAGGAUAUCAGCACGAUAAGUGCUGAGAAGGACUACCAGCUC [Denovo 79] | 15.8 | 20 | – | – |
| UCGAACGGAAACAAAGUCGAUAGACAUGAGGAUCACCCAUGUCAGGAUAUGCCUACUAAAAGUAGGCAGAAGGGACGCGUUCGA [Contusion 7 - Jieux - Exclusion NG 3] | 18 | 20.8 | – | – |
| CCGACGCCUCAGAAGGCACUCGCAUAAUGCGAGUGAGGAUAUGAGGAUCACCCAUAUCAACGUCGGAGUCACCGAAACGGUGAC [#SharedSequence - IEx NG 1-2] (puzzle (switch architecture): Inverted Exclusion NG 1) | – | – | 78.1 | – |
| AAAUUUAACGAAGGAUAUGCUGACAUGAGGAUCACCCAUGUGUGCCUUGUGUUGCUGCCUCGGGAGCAGAAGGUCGUAUACAUA [Ex NG2 #11] | 613 | 454 | – | – |
| AAAUAACUUGAAGGAUAUGACCCUCGAGGUGACUAAAAGUCACCUCGAGGGUCAGAAGGUCGAGGAUCACCCGAUCUAAAUAAA [#SharedSequence SLExNG1: 3-1] (puzzle (switch architecture): Small Loop Exclusion NG 1) | – | – | 24.6 | 10.2 |
| CCAUAAAAGAUCCAAAAUUACAACAUGAGGAUCACCCAUGUGCAGGAUAUCGUGAAAGUAAAGUACGAGAAGGGCAGACACUGC [salish99_ExNG3_r2_008] | 139 | 154 | – | – |
| GGAGAUACAUGAGGAUCACCCAUGUAGGAUAUCGGGCCCAUAUACGGCGAAAGCCGUAUAUGGGCCGAGAAGGGCGUACACACC [#LOL-7] (puzzle (switch architecture): Small Loop Exclusion NG 3) | – | – | 7.96 | 8.78 |
| AGACUCAGAUGGUGCCAGCUUGCACAUGAGGAUCACCCAUGUCAGGAUAUCUUCGCUCCGAGAGAAGAGAAGGGACAAGAAUUU [Soedon] | 234 | 79.4 | – | – |
| ACAUGGAAUCGAGGAUAUGACGCGGAAACGAAGUCAGAAGGCGAAAAUUUAACUCGAUAAUACAUGAGGAUCACCCAUGUAAUU [AK-NGROCr2-ExNG1-3] | 24.6 | 19.7 | – | – |
| AGAUGACAAAGUCAUCUCGCGCAGACAUGAGGAUCACCCAUGUAGGAUAUACUACUCAAAGAGUAGUAGAAGGACAUGUGUCUU [Ex NG2 #57] | 111 | 32.5 | – | – |
| UCAUACAUGACAUGACAUGACAUGAGGAUCACCCAUGUUUACAAGGAUAUGUUGAUGAAACAUCAACAGAAGGUGUAAUGGACU [xclu_NG3_cac7] | 232 | 136 | – | – |
| GUGAGGCAUCUACACGCUCGGGCCGAGGAUAUACAUGAGGAUCACCCAUGUAACAGUGCGGUCAUGUAGAAGGCGGCUAAAUUA [Rianrare] (puzzle (switch architecture): Small Loop Exclusion NG 3) | – | – | 42.3 | 11.1 |
